{
  "source": "paper PMC4330390",
  "about": "(Nucleic Acids Research, 2015)",
  "molecules": {"B1": {"name": "NXF1^ΔNΔUBA:NXT1 complex (complex, human)", "chain 1": "VRRDRAPPERGGAGTSQDGTSKNWFKITIPYGRKYDKAWLLSMIQSKCSVPFTPIEFHYENTRAQFFVEDASTASALKAVNYKILDRENRRISIIINSSAPPHTILNELKPEQVEQLKLIMSKRYDGSQQALDLKGLRSDPDLVAQNIDVVLNRRSCMAATLRIIEENIPELLSLNLSNNRLYRLDDMSSIVQKAPNLKILNLSGNELKSERELDKIKGLKLEELWLDGNSLCDTFRDQSTYISAIRERFPKLLRLDGHELPPPIAFDVEAPTTLPPCKGSYFGTENLKSLVLHFLQQYYAIYDSGDRQGLLDAYHDGACCSLSIPFIPQNPARSSLAEYFKDSRNVKKLKDPTLRFRLLKHTRLNVVAFLNELPKTQHDVNSFVVDISAQTSTLLCFSVNGVFKEVDGKSRDSLRAFTRTFIAVPASNSGLCIVNDELFVRNASSEEIQRAFAMPAPTP", "chain 2": "ASVDFKTYVDQACRAAEEFVNVYYTTMDKRRRLLSRLYMGTATLVWNGNAVSGQESLSEFFEMLPSSEFQISVVDCQPVHDEATPSQTTVLVVICGSVKFEGNKQRDFNQNFILTAQASPSNTVWKIASDCFRFQDWAS", "notes": "also called NXF1:NXT1; TAP:p15"}},
  "key": {"[1]": {"test_system": "NXF1ΔNΔUBA+3A;NXT1 (p15) (Homo sapiens;Homo sapiens)", "assay": "ITC"}, "[2]": {"target": "the molecule itself", "assay": "crystal structure; crystals of the purified NXF1^ΔNΔUBA:NXT1 complex, 18°C, 9% PEG 6000, 1 M LiCl, 0.1 M Na citrate pH 5.1; P1, 3.4 Å, two copies of the complex in the asymmetric unit"}},
  "data": [
    {"molecule": "full-length CTE-RNA", "values": [
      {"measurement": "binding signal (fold weaker than wild type)", "setting": "[1]", "value": 2.5}
    ]},
    {"molecule": "B1", "values": [
      {"measurement": "stoichiometry N", "setting": "[2]", "value": 2}
    ]}
  ]
}
